The DeepSol protein solubility set

Assay: soluble on expression in E. coli; label from the status in PepcDB or PDB records

| Sequence | soluble on expression in E. coli |
| --- | --- |
| MSLSTVISSEASNYDHWAWLYNHTLGPRYSEQKIAPLARAVLSQLPNGASVLDLCCGTGHLAKLMADRGYAVTGLDGSQDMINHARGNAPDLEFVLGDARDFTFEQPFDGVVCTSASLNHIQNTEDLRKVFSSVRRCLKDEGIFAFDINHPGQMARYWRDVPAEGELTDDYAWLITPRYNSQSNEGSFTVEIHTRPKAARFSLAEAAYRLAARLLSNRRRLALIARFGIPGNNWERHSVTNPVWGHDLDTVTELLRASGFSVKMRSTDGGPVTDERAVYFLCTKIAGDRAGQEVTKEAVEEGHHHHHH | soluble |
| MGSSHHHHHHSSGLVPRGSHMQKPIKKDPNRYHGEKMTEFSEWFHNILEEAEIIDQRYPVKGMHVWMPHGFMIRKNTLKILRRILDRDHEEVLFPLLVPEDELAKEAIHVKGFEDEVYWVTHGGLSKLQRKLALRPTSETVMYPMFALWVRSHTDLPMRFYQVVNTFRYETKHTRPLIRVREITTFKEAHTIHATASEAEEQVERAVEIYKEFFNSLGIPYLITRRPPWDKFPGSEYTVAFDTLMPDGKTLQIGTVHNLGQTFARTFEIKFETPEGDHEYVHQTCYGLSDRVIASVIAIHGDESGLCLPPDVAAHQVVIVPIIFKKAAEEVMEACRELRSRLEAAGFRVHLDDRDIRAGRKYYEWEMRGVPLRVEIGPRDLEKGAAVISRRDTGEKVTADLQGIEETLRELMKDILENLRTRAWERMESEIREAETLEEASRIVDEKRGIISFMWCGEEECGMDVEEKVRVDILGIQEEGSGTCINCGREAPYRAYLARTY | soluble |
| MERNKLARQIIDTCLEMTRLGLNQGTAGNVSVRYQDGMLITPTGIPYEKLTESHIVFIDGNGKHEEGKLPSSEWRFHMAAYQSRPDANAVVHNHAVHCTAVSILNRSIPAIHYMIAAAGGNSIPCAPYATFGTRELSEHVALALKNRKATLLQHHGLIACEVNLEKALWLAHEVEVLAQLYLTTLAITDPVPVLSDEEIAVVLEKFKTYGLAIEE | soluble |
| RGGSFAKSWRPMTMSYANLSVDKVEHRALVLNTPYSIIRTIGKQGLEEKRFYASEKELEQVFNPIHHLATDTTARFSQLRGRNVMVIIIESFARQYVGRLNQDIPDYKGYTPCFDSISQKGYLFEQAFANGRKSIDAMPSILSSLPSLRSHFITSHYSGNEIEGLGTALGRIGYQSIFLHGAPNGSMGFDAFVKQAGYKRYFGKTEYAHDEDFDGVWGIWDEPFLLHAVDELSRMKQPFVGTLFTLSSHEPFHIPSHREGLFPNEGEPLVQCIGYTDHALGEFFRKASRQTWFENTLFVITADHASGDLRPEYRSAVGR | not soluble |
| MIELVIVSRLLEYPDAALWQHQQEMFEAIAASKNLPKEDAHALGIFLRDLTTMDPLDAQAQYSELFDRGRATSLLLFEHVHGESRDRGQAMVDLLAQYEQHGLQLNSRELPDHLPLYLEYLAQLPQSEAVEGLKDIAPILALLSARLQQRESRYAVLFDLLLKLANTAIDSDKVAEKIADEARDDTPQALDAVWEEEQVKFFADKGCGDSAITAHQRRFAGAVAPQYLNITTGGQH | not soluble |
| KRRFELRGIVNNISVYDDFAHHPTAIAKTLAGVRAKLSQQESEQEQVGRIFAVLEPRSNTMRSGVHKESLPKSLIDADQVFIYQGEQVTWSVSDLIKQCKPACQVEDNVERLVESIAQQAQAGDIIVVMSNGGFADIHNKLLNRLANIPVPLEDA | not soluble |
| MTHPVAVKACLFDMDGLLINTEDIYTETLNETLAEFGKGPLTWDVKIKLQGLPGPKQEKG | soluble |
| MGSDKIHHHHHHMVKNYVLDTNVLIHDPDSIFSFEDNNVIIPLPVLEELDKLKREHGSVGKNAREVIRHLDELRKKGNLRKGIPLENGGILRVMVLEREVENVPRFLHERYVDNIILAYVIELMNREKIPTILVSKDINLRVKADSLGIPAQDYLTDRSELETMPKGYVEIDDEELKKQLKVKVTVEKKLDLLDNFYIDLGGVYGKYRKGKVLRVEPFETMGISPRNREQIFSMDALLDDEIPLVFLVGIAGTGKTLLALACGLYKVLVEKRYKKLIVTRPTVPMGRDIGYLPGELEKKMKPWLQPIMDNLELISSLSGLKIKELEKQEILEVEAISFIRGRSIPKQFIIIDEAQNLTPHEVKTILTRVGEDTKIVLVGDPYQIDTPYLDKDTNGLVYAALKLLESDLSAVIKLEKGERSRLATIAAELL | not soluble |
| MFPIKKRKAIKNNNINAAQIPKHIAIIMDGNGRWAKQKKMPRIKGHYEGMQTVRKITRYASDLGVKYLTLYAFSTENWSRPKDEVNYLMKLPGDFLNTFLPELIEKNVKVETIGFIDDLPDHTKKAVLEAKEKTKHNTGLTLVFALNYGGRKEIISAVQLIAERYKSGEISLDEISETHFNEYLFTANMPDPELLIRTSGEERLSNFLIWQCSYSEFVFIDEFWPDFNEESLAQCISIYQNRHRRFGGL | soluble |
| MATQSDLMELEMAMDPDRKAAVSHWQQQSYLDSGIHSGATTTAPSLSGKGNPEDDDVDNQVLYEWEQGFNQSFNQEQVADIDGQYAMTRAQRVRAAMFPETLDEGMQIPSTQFDSAHPTNVQRLAEPSQMLKHAVVNLINYQDDAELATRAIPELTKLLNDEDQVVVNKAAVMVHQLSKKEASRHAIMRSPQMVSAIVRTMQNTNDVETARCTSGTLHNLSHHREGLLAIFKSGGIPALVNMLGSPVDSVLFHAITTLHNLLLHQEGAKMAVRLAGGLQKMVALLNKTNVKFLAITTDCLQILAYGNQESKLIILASGGPQALVNIMRTYTYEKLLWTTSRVLKVLSVCSSNKPAIVEAGGMQALGLHLTDPSQRLVQNCLWTLRNLSDAATKQEGMEGLLGTLVQLLGSDDINVVTCAAGILSNLTCNNYKNKMMVCQVGGIEALVRTVLRAGDREDITEPAICALRHLTSRHQDAEMAQNAVRLHYGLPVVVKLLHPPSHWPLIKATVGLIRNLALCPANHAPLREQGAIPRLVQLLVRAHQDTQRRTSMGGTQQQFVEGVRMEEIVEACTGALHILARDIHNRIVIRGLNTIPLFVQLLYSPIENIQRVAAGVLCELAQDKEAAEAIEAEGATAPLTELLHSRNEGVATYAAAVLFRMSEDKPQDYKKRLSVELTSSLFRTEPMTWNETGDLGLDIGAQGEPLGYRQDDPSYRSFHSGGYGQDAMGMDPMMEHEMAGHHPGPDYPVDGLPDLGHTQDLIDGLPPGDSNQLAWFDTDL | soluble |
| MGSSHHHHHHSSGRENLYFQGVRPAVIAATGLYTPPDSVSNAELVEAFNTYVANFNAANKARIEAGEIEPLQPSSSEFIEKASGIKSRYVVAKPGIVDPDVMRPIIPERSNDELSILAEMAVTAAEQAIERWGKPRERIGAVLCACSNMQRAYPAMAIEVQNALGLGGFAFDMNVACSSATFGLKTAADFVGGGSVDAVLMVNPEICSGHLNFRDRDSHFIFGDVATAAIVERADDAQGGWSILGTKLKTQFSNNIRNNAGFLNRAWPEGRDKADKLFVQQGRKVFKEVVPLVSEMIIEHAREIGIDPHGLKRMWLHQANINMNEIIGRKVLGRDPTRDENVIILDDYANTSSAGSIIAFHKHQDDMAQGDLGLICSFGAGYSAGTVFVQKR | soluble |
| MGSFPNFGAFILRAQEKDGRTCINGLPVASPAKQMLGRFPYLQSLQHDNLSVYLHFSETVIARDLVIVVMEHYTMNLEDILKTGNLKDESLNNNFYSEISSALDYLHTRNIVHGFLHLNSIYITDRKNQKLSVKLSGYGLPFLTNYGKDTASSIKFGAFLAPERILNDEDSLFAATYQSDVWELGFIILQIYLGISLEAEVTETEYLEILNKYYTDDQEKLSTVMEDLIQLLADKKRLPYHKKCEWLEAIIRKCLQMCCSKRCSITEVAAEIEININGVKNNNNKYEYKVKTVEEMRAAVRKEVADNNDGFEKLSVENSFYLWKTCGSTPEIILLKKGIIQNHAPISSYPTVRFDDFLRLDSGVDSQSTFEYGVFDLPSKKTLTRKETGQRVSARMFHKIGILEDKDLLNGNILYETASNMLTVDHLLNASAVFGISSIISRLTNIGVIPTQRADVWCTLLDINETKWRDYLNLDVLASHSSDRQLEVDIPRCHQYDSYMTTPAIQESLRKVLKGWQIVTESQHFVYWQGCDSLATPFLLANMSKPHVAFACFKEFTYRYCHKFYLKDNSEVIKEYLGIFYHLVAYTDPVLYKHLKINGFDAELFAIPWFLTCFAHELPLSKLVLLWDETMMHGNAFPLMIALAMLNRLRDKLLAVNFNEMIIIIHDQPDLSIDEIIKNSRGYEKLIPPSCTFRAHASPWKGTSLSLQQLSSIHCPRMSSEELIWRIERKMVYVLDTRQESEFQSERFSDSFNHPNNNHEADIDWLRFLPGIVCSELPKCFVYGKNDKEAAERLTEAYVMKGVPYICLLHDHFEAVRNRDSVVVKP | not soluble |
